# Laboratory results as given in patent US20260258115A1 (MAPP BIOPHARMACEUTICAL, published 2026).
# B1: ADI-41799 (antibody, V domains shown)
# VH: QVQLVQSGAEVKKPGSSVKVSCQASGGTFSTHALSWVRQTPGHGLEWVGGVLPVFGATKYPRKFQGRVTITADKSTNTAYMELSSLRSDDTAVYYCARVVVHSTITTAKDFFSGVHDIWGQGTMVTVSS
# VL: DIRMTQSPSTLSASVGDRVTITCRASQTVSSWLAWYQQKPGKAPKLLIYQASSLESGVPSRFSGSGSGTEFTLTISGLQPDDFATYFCQHYNSYSPVTFGGGTKVEIK
# notes: also called Ab 910; Antibody Number 910
# B2: ADI-41561 (antibody, V domains shown)
# VH: QVQLVQSGPTLVKPTQTLTLTCSFSGFSLTNTGVGVGWIRQPPGKALEWLALIYWDDDKRYRPSLKSRLTITKDTSKSQVVLTMTNMDPLDTATYYCAHRRSAYDPIYFDYWGQGALVTVSS
# VL: DIRVTQSPSSVSASVGDRVTITCRASRSINNWLAWYQQKPGKAPKLLIYAASSLQSGVPSRFSGSGYGTDFTLTISSLQPEDFATYYCQQAHSFPSITFGQGTRLEIK
# B3: ADI-41743 (antibody, V domains shown)
# VH: EVQLVESGSGLVKPSQTLSLTCSVSGGSISSGGYSWSWIRQPPGKGLEWIGFIYNTGSTYSNPSLKSRLTLSVDRSNNRFSLKLNSVTAADTGVYFCARSGNVRQCDATGHCSTNYYFEYWGLGTLVTVSS
# VL: EIVMTQSPATLSVSPGERATLSCRASQSVSSNLAWYQQKPGQAPRLLIYGASTRATGIPARFSGSGSGTEFTLTISSLQSEDFAVYYCQQHDDWPPLTFGGGTKVEIK
# notes: also called Ab 898; Antibody Number 898
# B4: ADI-41804 (antibody, V domains shown)
# VH: QVQLQQWGAGLLKPSETLSLTCSVLGGSFSGYYWTWIRQPPGKGLEWIGEITHDGSSNYNPSLNSRVTISVDTSNYQFSLKMRSVTAADTAVYYCARSPDLTIFGGLYFYYGISVWGQGTTVTVSS
# VL: DIQMTQSPSSLSASMGDRVTITCRASQDISNYLAWYQQKPGKVPNLLIYAASTLQGGVPSRFSGSGSGTDFTLTISSLQPEDVAIYYCQKYKSAPRTFGQGTKVEIK
# B5: ADI-41811 (antibody, V domains shown)
# VH: QVQLQQSGPRLVKPSHTLSLTCVISGDSVSSGSAAWSWIRQSPSRGLEWLGRTYYRSKWYYDYAVSVKGRIIIQPDTSKNQFSLQLNSVSPEDTAVYYCARDPDSGNYFHYYGMDVWGQGTTVTVSS
# VL: DIVMTQSPATLSLSPGERATLSCRASQSVDVYFAWYQQKPGQAPRLLIYDASKRASGVPARFSGSASGTDFTLTISSLEPEDFAVYYCQQRAKWPPYTFGQGTKLEIK
# B6: ADI-41768 (antibody, V domains shown)
# VH: EVQLVESGGGLVQPGRSLRLSCAASGFTFGDYAMHWVRQAPGKGLEWVSGITWNSGRVVYADSVKGRFTISRDNAKNSLYLQINSLRAEDTALYYCVKGSCNGGICYSADYWGQGTLVTVSS
# VL: NFMLTQPHSVSESPGKTVTISCTRSSGSIARNFVHWYQQRPGSSPTTVIYEDNQRPSGVPGRFSGSIDSSSNSASLTISGLRSEDEADYYCQSYDSDNWVFGGGTKLTVL
# notes: also called Ab 900; Antibody Number 900
# B7: ADI-41803 (antibody, V domains shown)
# VH: RCTLQQWGAGRVKPSETLSLTCAVYRGPFSGYYWSWIRQPPGKGLEWIGEINLGETNPGGSTHYNPSLRSRLSMSIDTSKKQFSLRVNSVTAADTAVYYCTRGPVSRIYDTSGSYSLNYYGMDVWGQGTTVTVSS
# VL: DIRMTQSPSSLSASVGDRVTITCRASQGIRNDLGWYQQKPGRAPERLIYPASSLQGGVPSRFIASGSGTEFTLTISNLQPEDFATYYCLQHNSYPRTFGQGTKVEIK
# notes: also called Ab 912; Antibody Number 912
# B8: ADI-41737 (antibody, V domains shown)
# VH: QVQLQESGPGLVKPSQTLSLTCTVSGGSMISGDFYWSWIRQPPGKGLEWIGYIYYSGTTYYSPSLKSRVSMSIDTSKSQFSLKLSSVTAADTAVYYCARKYSYGEKAYHYWGQGTLVTVSS
# VL: EIVLTQSPGTLSLSPGERATLSCRASQTVGNNYLAWYQQKPGQAPRLLIYGASSRATGIPDRFSGSGSGTDFTLTISRLESEDFAVYHCHQYGTSPQTFGQGTKVEIK
# notes: also called Ab 897; Antibody Number 897
# B9: ADI-41808 (antibody, V domains shown)
# VH: QVQLVQSGAELKKPGSSVRISCKVSGVTSDNYAITWVRQAPGQGLEWMGRVIPIFPVPQYAQKFQGRVTLSADKSTRTAYLELHSLRSEDTATYYCATHRPSDSWGQGTLVTVSS
# VL: DIRVTQSPSTLSASVGDRVTITCRASQNINSWLAWYQQKPGKAPKLLIFKASSLESGVPARFSGSGFGTEFTLTITSLQPDDFASYYCQQYDTYPYPFGQGTKVEIK
# notes: also called Ab 916; Antibody Number 916
# B10: ADI-41558 (antibody, V domains shown)
# VH: EVQLLESGGGLVKPGGSLRLSCEVSGFPFSDYYVSWIRQAPGKGLEWLSYSSRGGIYTNYADSVKGRFTISRDNDKNSLFLQMNSLRAEDTAVYYCARDRSDIWSGRVGFDYWGQGTLVTVSS
# VL: DIVMTQSPATLSLSPGERATLSCRASQSVSSSYLAWYQQKPGQAPRLLIYGASSRATGIPDRFSGSGSGTDFTLTISRLEPEDFAVYYCQQYNKSPPGYIFGPGTKVDIK
# notes: also called Ab 840; Antibody Number 840
# B11: ADI-41555 (antibody, V domains shown)
# VH: EVQLVESGPGLVKPSQTLSLTCSVSGGSISSGIHYWSWIRQHPGKGLEWIGYIYYSGSTYYNPSLESRITISVDTSKNQFSLKVSSVTAADTAVYYCARVNRASRMTTFGVANERSIYYFMDVWGKGTTVTVSS
# VL: ETTLTQSPATLSLSPGERATLSCRATQSVGNYLAWYQQKPGQAPRLLIHDASNRATGIPARFSGSGSGTDFTLTISSLEPEDFAVYYCQLRINWLFTFGPGTKVEIK
# B12: ADI-41807 (antibody, V domains shown)
# VH: EVQLLESGPALVKPTQTLTLTCTFSGFSLTTTRMSVSWIRQPPGKALEWLARIDWDDDKYYSTSLKTRLTISKDTSKNQVVLTMTNMDPVDTATYFCARVNVYAANGYYSYYLDYWGQGTLVTVSS
# VL: DIVMTQTPSSLSASVGDRVTITCRTSQSSSRYLNWYQKEPGKAPRLLIYLASALRSGVPSRFSGSGSGTDFTLTISSLQSEDFATYYCQQTYSIPWTFGQGTKVEIK
# B13: ADI-41554 (antibody, V domains shown)
# VH: EVQLVESGGGLVQPGGSLRLSCAASGFTFSSYPMNWVRQGPGKGLEWVSSISSSGASPYYADSVKGRFTISRDNSKNTLYLQMNSLRADDTAVYYCAREDYYYYYMDVWGKGTTVTVSS
# VL: ETTLTQSPSTLSASVGDRVTITCRASESISSWLAWYQQKPGKAPKLLIFKASTVQSGVPSRFSGSGSGTEFTLTISSLQPDDFATYYCQQYNSYLLTFGGGTKVEIK
# notes: also called Ab 836; Antibody Number 836
# B14: ADI-41778 (antibody, V domains shown)
# VH: QVQLVESGGGQGQPGRSLRLSCAASGFTFDDYAMHWVRQVPGKGLEWVSGINWNSGYIGYADSVKGRFTISRDNAKNSLYLQMNSLRAEDTALYYCAKANNPIDSSGYNRGFDTWGQGTLVTVSS
# VL: QSALTQPRSVSGSPGQSVTISCTGTSSDVGGYNYVSWYQQHPGKAPKLMIYDVNKRPSGVPDRFSGSKSDNTASLTISGLQAEDESDYFCCSYAGTYTWVFGGGTKVTVL
# B15: ADI-41794 (antibody, V domains shown)
# VH: EVQLQQWGAGLLKPSETLSLTCAVYGGSFSGYYWSWIRQPPGKGLEWIGEINHSGSTNYNPSLKSRVTISVDTSKNQFSLKLSSVTAADTAVYYCARGTRTIVYCDGDCYQPWAYHYYGMDVWGQGTTVTVSS
# VL: QSVVTQEPSVSAAPGQKVTISCSGGSSNIGNNYVSWYQHLPGTAPKLLIYDNDKRPSGIPDRFSGSKSGTSATLGITGLQTGDEADYYCGTWDSSLSAVVFGGGTKLTVL
# B16: ADI-41781 (antibody, V domains shown)
# VH: QVQLVQSGAEVRKPGASVKVSCKAFGYTFTNFAISWVRQAPGQGLEWMGWIGPYNGDTDYEQKFQGRVTMTADTSSSTVFMELRSLRFDDTAVYYCARGKGSTIPLGYYIGMDVWGQGTTVTVSS
# VL: ETTLTQSPSSLSASVGDRVTMTCRASQGISNYLAWYQQKPGKPPKLLIYLASSLQSGVPSRFSGSGSGTDFTLTISSLQPEDVATYYCQKYNSAPLTFGGGTKLEIK
# B17: ADI-41552 (antibody, V domains shown)
# VH: EVQLLESGGGLVQPGGSLRLSCAASGFTFSPYSMNWVRQAPGKGLEWVSYISRSGSFKYYADSVKGRFTISRDDAKNSLYLHMNSLRDDDTAVYYCVSYCSSATCHQRFDYWGQGTLVTVSS
# VL: EIVLTQSPATLSLSPGERATLSCRASQSVNSYLAWYQQKPGQAPRLLIYDASNRATGIPARFSGSGSGTDFTLTISSLEPEDFAVYYCQERNSWPKLTFGGGTKVEIK
# B18: ADI-41557 (antibody, V domains shown)
# VH: EVQLLESGPGLVKPSETLSLTCNVSGGSISSYYWSWIRQSPGKGLEWIGHIYDTGYTNYNPSLKSRVTMSVDTSKNRFSLKLDSVTAADTAVYYCARGRGWRNLYNWFDPWGQGTLVTVSS
# VL: DIVMTQSPATLSVSPGERATLSCRTSQSFSSMLAWYQQKPGQAPRLLIYGASTRATGIPARFSGSGSATEFTLTISNLQSEDVAVYYCQQYNSWPLTFGGGTKVEIK
# notes: also called Ab 839; Antibody Number 839
# Target: RSV prefusion F (preF), DS-Cav1 (Respiratory syncytial virus, UniProt P03420 26-513)
# Assay: BLI, IgG on anti-human IgG sensor, 100 nM antigen
row,Binder,Kd [nM]
1,B1,3.28
2,B2,3.33
3,B3,5.45
4,B4,0.331
5,B5,1.64
6,B6,1.61
7,B7,1.99
8,B8,3.58
9,B9,13.9
10,B10,3.02
11,B11,5.69
12,B12,1.5
13,B13,1.35
14,B14,2.75
15,B15,3.31
16,B16,3.46
17,B17,3.44
18,B18,30.9

# Target: RSV postfusion F (postF), F ΔFP (Respiratory syncytial virus, UniProt P03420 26-513)
# Assay: BLI, IgG on anti-human IgG sensor, 100 nM antigen
row,Binder,Kd [nM]
1,B1,1.1
2,B2,0.516
3,B3,1.27
4,B4,0.436
5,B5,0.744
6,B6,0.338
7,B7,0.711
8,B8,1.58
9,B9,22.5
10,B10,0.7
11,B11,1.12
12,B12,1.19
13,B13,1.07
14,B14,0.504
15,B15,3.01
16,B16,0.653
17,B17,0.522
18,B18,86.1

# Target: RSV F on RSV-A2 virus (Respiratory syncytial virus, RSV-A2, UniProt P03420 26-574)
# Assay: cell-based or functional assay
row,Binder,Neutralization IC50 (RSV subtype A) [µg/mL]
1,B1,> 25
2,B2,> 25
3,B3,> 25
4,B4,> 25
5,B5,> 25
6,B6,> 25
7,B7,> 25
8,B8,> 25
9,B9,> 25
10,B10,> 25
11,B11,25
12,B12,> 25
13,B13,> 25
14,B14,> 25
15,B15,> 25
16,B16,> 25
17,B17,> 25
18,B18,> 25
